From patent US7887851B2, “Aromatase activator” (Kao Corporation, priority 2004, dated 2011)

Legend:
HepG2 cell = assay: alamarBlue fluorescence in Ex1b-luc transfected HepG2 cell; format: cell-based, human; details: 20 hours
Protocol: Immortalized human hepatoma-derived cell (HepG2 cell)
HepG2 cell was inoculated to 96 well culture plate at 30,000 cells per well, and Ex1b-luc was introduced using lipofectamine reagent (Invitrogen) according to the protocol described in the attached manual. The DNA was used at an amount of 0.1 μg per well. The same procedure was repeated for control without adding the DNA (2 wells).
The transfected cells were cultivated overnight, and plant extract prepared in Production Example 1, Table 2, or yeast extract (“YeastLiquid B”, Ichimaru Pharcos Co Ltd.), silk protein extract (“Silkgen G Soluble KE”, Ichimaru Pharcos Co Ltd.), milk protein (“Bioderma SX-14” Ichimaru Pharcos Co Ltd.), “lactoferrin S FREE”, Ichimaru Pharcos Co Ltd.), natto extract (“Soybean polymer F B-20”, Ichimaru Pharcos Co Ltd.), or royal jelly (“royal jelly extract”, Ichimaru Pharcos Co Ltd.) was added (1% or 0.1%), and the cultivation was continued for another 20 hours. After adding 20 μL of alamarBlue (BIOSOURCE), fluorescence intensity (excitation light 544 nm, fluorescence 590 nm) was measured. Luciferase activity was also measured by using PicaGene Dual SeaPansy Luminescence kit (Nippon Gene). The cells were lysed by adding 25 μL per well of the lysis buffer that had been diluted 5× lysis buffer to 1× concentration.

[1] = system: transcription control region for exon 1b of human aromatase gene; assay: Luciferase reporter assay, Ex1b-luc in HepG2 cell (expression of exon 1b of aromatase gene); format: cell-based; details: 20 hours
Protocol: The region containing transcription control region for exon 1b of human aromatase gene and a part of the exon 1b was amplified by PCR from genomic DNA extracted from human normal keratinocyte by using the following primers: […]
The resulting PCR product was treated with restriction enzymes SpeI and EcoRI, and incorporated in SpeI site and EcoRI site in SeaPansy null Control Vector (Toyo Ink Mfg. Co., Ltd.) to produce Ex1b-luc plasmid. This plasmid was used in the luciferase assay as will be described below.
Immortalized human hepatoma-derived cell (HepG2 cell) […]
The transfected cells were cultivated overnight, and plant extract prepared in Production Example 1, Table 2, or yeast extract (“YeastLiquid B”, Ichimaru Pharcos Co Ltd.), silk protein extract (“Silkgen G Soluble KE”, Ichimaru Pharcos Co Ltd.), milk protein (“Bioderma SX-14” Ichimaru Pharcos Co Ltd.), “lactoferrin S FREE”, Ichimaru Pharcos Co Ltd.), natto extract (“Soybean polymer F B-20”, Ichimaru Pharcos Co Ltd.), or royal jelly (“royal jelly extract”, Ichimaru Pharcos Co Ltd.) was added (1% or 0.1%), and the cultivation was continued for another 20 hours. After adding 20 μL of alamarBlue (BIOSOURCE), fluorescence intensity (excitation light 544 nm, fluorescence 590 nm) was measured. Luciferase activity was also measured by using PicaGene Dual SeaPansy Luminescence kit (Nippon Gene). […]

B1: Lactoferrin: milk protein; commercial product "Lactoferrin S FREE" (Ichimaru Pharcos) (protein, UniProt P24627 20-708, looked up)
Lactotransferrin: APRKNVRWCTISQPEWFKCRRWQWRMKKLGAPSITCVRRAFALECIRAIAEKKADAVTLDGGMVFEAGRDPYKLRPVAAEIYGTKESPQTHYYAVAVVKKGSNFQLDQLQGRKSCHTGLGRSAGWIIPMGILRPYLSWTESLEPLQGAVAKFFSASCVPCIDRQAYPNLCQLCKGEGENQCACSSREPYFGYSGAFKCLQDGAGDVAFVKETTVFENLPEKADRDQYELLCLNNSRAPVDAFKECHLAQVPSHAVVARSVDGKEDLIWKLLSKAQEKFGKNKSRSFQLFGSPPGQRDLLFKDSALGFLRIPSKVDSALYLGSRYLTTLKNLRETAEEVKARYTRVVWCAVGPEEQKKCQQWSQQSGQNVTCATASTTDDCIVLVLKGEADALNLDGGYIYTAGKCGLVPVLAENRKSSKHSSLDCVLRPTEGYLAVAVVKKANEGLTWNSLKDKKSCHTAVDRTAGWNIPMGLIVNQTGSCAFDEFFSQSCAPGADPKSRLCALCAGDDQGLDKCVPNSKEKYYGYTGAFRCLAEDVGDVAFVKNDTVWENTNGESTADWAKNLNREDFRLLCLDGTRKPVTEAQSCHLAVAPNHAVVSRSDRAAHVKQVLLHQQALFGKNGKNCPDKFCLFKSETKNLLFNDNTECLAKLGGRPTYEEYLGTEYVTAIANLKKCSTSPLLEACAFLTR
Which AlamarBlue activity (HepG2 cell; added at 0.1%) does the source give for B1 here?
Its AlamarBlue activity is 135.9%.

What about the AlamarBlue activity (HepG2 cell; added at 1%) of the same molecule?
The AlamarBlue activity was 138.2%.

And the Luciferase activity ([1]; added at 0.1%)?
The Luciferase activity was 155.2%.

What about the Luciferase activity ([1]; added at 1%) of the same molecule?
The Luciferase activity was 181.5%.
